Measured values as given in FireProtDB (doi:10.1093/protein/12.8.663).

Details: Homo sapiens; pH 2.7; Thermal; DSC; glycine 0.05 M; reversible: yes; whole UniProt chain shown

B1: Lysozyme C wild type, P61626 (protein)
chain: MKALIVLGLVLLSVTVQGKVFERCELARTLKRLGMDGYRGISLANWMCLAKWESGYNTRATNYNAGDRSTDYGIFQINSRYWCNDGKTPGAVNACHLSCSALLQDNIADAVACAKRVVRDPQGIRAWVAWRNRCQNRDVRQYVQGCGV
  Tm: 64.9 °C
  heat capacity change of unfolding: 1.58 kcal/mol/K
  unfolding enthalpy (calorimetric): 114 kcal/mol
